Patent US20250262210A1 (TRUSTEES OF COLUMBIA UNIVERSITY IN THE CITY OF NEW YORK, published 2025)

Legend:
Test in all cases: IP/MS, LZTR1 R810W-FLAG, U87
KNL1 = KNL1 (human, UniProt Q8NG31 1-2342, limits assumed)
Summary of the method: (§1)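 Gel slices were reduced with 5 mM DTT, alkylated with 11 mM IAA and digested overnight at 37° C. with trypsin. Peptides were analysed on an Orbitrap Fusion Tribrid by LC-MS/MS.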

SNX14 = target: T1, SNX14 (human, UniProt Q9Y5W7 1-946, limits assumed)
T1 sequence (looked up): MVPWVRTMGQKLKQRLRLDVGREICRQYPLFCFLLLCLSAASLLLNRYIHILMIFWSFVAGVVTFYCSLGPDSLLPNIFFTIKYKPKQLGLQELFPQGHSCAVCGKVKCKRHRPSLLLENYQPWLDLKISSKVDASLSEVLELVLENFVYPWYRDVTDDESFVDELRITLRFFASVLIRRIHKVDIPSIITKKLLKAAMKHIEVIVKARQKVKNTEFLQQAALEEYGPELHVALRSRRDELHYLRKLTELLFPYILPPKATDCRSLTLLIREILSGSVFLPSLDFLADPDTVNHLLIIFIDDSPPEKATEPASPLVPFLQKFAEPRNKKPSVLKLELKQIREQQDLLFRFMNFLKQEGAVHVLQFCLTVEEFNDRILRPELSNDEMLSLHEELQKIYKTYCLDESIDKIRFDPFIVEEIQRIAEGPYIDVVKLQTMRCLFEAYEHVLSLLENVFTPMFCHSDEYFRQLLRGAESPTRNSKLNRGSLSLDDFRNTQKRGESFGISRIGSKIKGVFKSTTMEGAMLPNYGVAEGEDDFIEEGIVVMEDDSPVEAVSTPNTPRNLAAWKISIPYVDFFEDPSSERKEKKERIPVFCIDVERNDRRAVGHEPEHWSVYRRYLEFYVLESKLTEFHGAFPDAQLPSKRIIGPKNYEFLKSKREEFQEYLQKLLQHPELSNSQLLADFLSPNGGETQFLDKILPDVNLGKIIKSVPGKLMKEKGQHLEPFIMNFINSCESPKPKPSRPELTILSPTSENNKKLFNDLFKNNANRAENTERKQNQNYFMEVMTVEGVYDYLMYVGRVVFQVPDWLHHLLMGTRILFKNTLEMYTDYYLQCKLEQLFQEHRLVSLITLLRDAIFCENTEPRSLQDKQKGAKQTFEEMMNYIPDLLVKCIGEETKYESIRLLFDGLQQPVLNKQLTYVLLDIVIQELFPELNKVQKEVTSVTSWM
Summary of the method: as §1

HECTD3 = target: T2, HECTD3 (human, UniProt Q5T447 2-861, limits assumed)
T2 sequence (looked up): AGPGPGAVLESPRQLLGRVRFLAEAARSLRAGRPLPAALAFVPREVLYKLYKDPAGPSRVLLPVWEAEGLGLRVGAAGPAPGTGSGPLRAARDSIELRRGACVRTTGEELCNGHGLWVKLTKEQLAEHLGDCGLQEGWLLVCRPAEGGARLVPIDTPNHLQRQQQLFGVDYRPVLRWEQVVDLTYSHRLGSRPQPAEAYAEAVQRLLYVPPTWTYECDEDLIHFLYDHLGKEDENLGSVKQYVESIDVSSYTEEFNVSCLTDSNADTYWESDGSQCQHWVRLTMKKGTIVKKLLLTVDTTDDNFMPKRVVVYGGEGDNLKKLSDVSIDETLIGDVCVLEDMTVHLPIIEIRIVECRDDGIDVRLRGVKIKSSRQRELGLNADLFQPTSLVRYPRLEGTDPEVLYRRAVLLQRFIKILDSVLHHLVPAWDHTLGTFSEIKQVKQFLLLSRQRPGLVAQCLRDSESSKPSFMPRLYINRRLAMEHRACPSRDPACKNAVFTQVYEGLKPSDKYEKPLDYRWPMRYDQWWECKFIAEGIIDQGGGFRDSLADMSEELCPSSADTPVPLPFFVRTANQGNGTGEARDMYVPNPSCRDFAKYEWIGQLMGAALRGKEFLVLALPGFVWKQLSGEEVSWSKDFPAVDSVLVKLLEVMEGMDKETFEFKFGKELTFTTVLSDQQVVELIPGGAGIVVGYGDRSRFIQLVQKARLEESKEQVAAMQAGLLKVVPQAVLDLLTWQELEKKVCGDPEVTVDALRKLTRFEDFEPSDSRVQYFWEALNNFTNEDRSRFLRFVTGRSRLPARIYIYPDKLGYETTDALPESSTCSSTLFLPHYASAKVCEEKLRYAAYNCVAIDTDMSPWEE
Summary of the method: as §1

POLR1A = POLR1A (human, UniProt O95602 1-1720)
Summary of the method: as §1

Measured: binding result

Sequence of POLR1A (O95602 whole entry): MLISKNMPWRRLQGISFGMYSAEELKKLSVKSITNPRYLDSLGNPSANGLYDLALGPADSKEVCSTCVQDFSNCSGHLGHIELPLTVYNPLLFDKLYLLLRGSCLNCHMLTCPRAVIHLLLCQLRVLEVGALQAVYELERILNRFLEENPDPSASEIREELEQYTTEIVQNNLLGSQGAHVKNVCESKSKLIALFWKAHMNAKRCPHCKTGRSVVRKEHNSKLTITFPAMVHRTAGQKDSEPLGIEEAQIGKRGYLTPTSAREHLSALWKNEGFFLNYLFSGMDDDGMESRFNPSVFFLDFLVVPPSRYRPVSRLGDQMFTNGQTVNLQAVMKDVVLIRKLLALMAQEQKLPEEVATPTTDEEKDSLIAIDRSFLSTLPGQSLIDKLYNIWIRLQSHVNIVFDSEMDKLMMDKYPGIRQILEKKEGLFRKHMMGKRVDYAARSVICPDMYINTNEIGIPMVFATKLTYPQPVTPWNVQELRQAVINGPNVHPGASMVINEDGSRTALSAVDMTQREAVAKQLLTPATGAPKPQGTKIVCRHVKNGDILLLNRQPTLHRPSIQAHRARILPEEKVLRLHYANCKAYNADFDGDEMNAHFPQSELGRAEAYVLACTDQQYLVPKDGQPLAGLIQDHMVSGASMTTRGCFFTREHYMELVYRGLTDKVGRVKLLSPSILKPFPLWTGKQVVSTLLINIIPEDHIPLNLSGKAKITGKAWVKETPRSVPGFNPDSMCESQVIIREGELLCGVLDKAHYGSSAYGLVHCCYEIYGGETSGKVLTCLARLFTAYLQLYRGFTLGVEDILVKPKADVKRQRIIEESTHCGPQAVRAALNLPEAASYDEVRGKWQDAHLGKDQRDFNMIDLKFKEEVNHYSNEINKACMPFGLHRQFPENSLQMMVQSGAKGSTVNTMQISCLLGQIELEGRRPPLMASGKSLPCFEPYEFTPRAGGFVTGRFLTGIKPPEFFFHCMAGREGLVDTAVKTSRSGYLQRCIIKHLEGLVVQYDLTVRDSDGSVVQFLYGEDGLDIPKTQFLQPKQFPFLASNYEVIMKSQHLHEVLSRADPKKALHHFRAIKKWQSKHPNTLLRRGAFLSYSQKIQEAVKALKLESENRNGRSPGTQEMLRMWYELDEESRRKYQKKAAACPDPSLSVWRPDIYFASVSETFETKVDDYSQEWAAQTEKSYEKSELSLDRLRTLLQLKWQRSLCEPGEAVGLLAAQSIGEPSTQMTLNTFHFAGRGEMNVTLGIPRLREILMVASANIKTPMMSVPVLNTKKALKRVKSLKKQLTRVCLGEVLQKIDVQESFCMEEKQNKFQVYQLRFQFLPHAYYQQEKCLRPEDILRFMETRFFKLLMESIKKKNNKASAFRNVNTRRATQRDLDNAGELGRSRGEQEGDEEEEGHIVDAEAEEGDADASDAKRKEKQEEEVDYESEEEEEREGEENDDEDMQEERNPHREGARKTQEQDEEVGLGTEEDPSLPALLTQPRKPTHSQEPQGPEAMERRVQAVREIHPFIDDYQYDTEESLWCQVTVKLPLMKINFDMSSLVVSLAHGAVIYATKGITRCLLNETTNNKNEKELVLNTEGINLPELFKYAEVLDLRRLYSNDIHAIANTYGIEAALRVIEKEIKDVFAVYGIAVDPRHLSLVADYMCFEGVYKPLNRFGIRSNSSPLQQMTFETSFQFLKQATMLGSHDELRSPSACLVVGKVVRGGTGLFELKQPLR
Sequence of KNL1 (Q8NG31 whole entry, the tested form may be a part): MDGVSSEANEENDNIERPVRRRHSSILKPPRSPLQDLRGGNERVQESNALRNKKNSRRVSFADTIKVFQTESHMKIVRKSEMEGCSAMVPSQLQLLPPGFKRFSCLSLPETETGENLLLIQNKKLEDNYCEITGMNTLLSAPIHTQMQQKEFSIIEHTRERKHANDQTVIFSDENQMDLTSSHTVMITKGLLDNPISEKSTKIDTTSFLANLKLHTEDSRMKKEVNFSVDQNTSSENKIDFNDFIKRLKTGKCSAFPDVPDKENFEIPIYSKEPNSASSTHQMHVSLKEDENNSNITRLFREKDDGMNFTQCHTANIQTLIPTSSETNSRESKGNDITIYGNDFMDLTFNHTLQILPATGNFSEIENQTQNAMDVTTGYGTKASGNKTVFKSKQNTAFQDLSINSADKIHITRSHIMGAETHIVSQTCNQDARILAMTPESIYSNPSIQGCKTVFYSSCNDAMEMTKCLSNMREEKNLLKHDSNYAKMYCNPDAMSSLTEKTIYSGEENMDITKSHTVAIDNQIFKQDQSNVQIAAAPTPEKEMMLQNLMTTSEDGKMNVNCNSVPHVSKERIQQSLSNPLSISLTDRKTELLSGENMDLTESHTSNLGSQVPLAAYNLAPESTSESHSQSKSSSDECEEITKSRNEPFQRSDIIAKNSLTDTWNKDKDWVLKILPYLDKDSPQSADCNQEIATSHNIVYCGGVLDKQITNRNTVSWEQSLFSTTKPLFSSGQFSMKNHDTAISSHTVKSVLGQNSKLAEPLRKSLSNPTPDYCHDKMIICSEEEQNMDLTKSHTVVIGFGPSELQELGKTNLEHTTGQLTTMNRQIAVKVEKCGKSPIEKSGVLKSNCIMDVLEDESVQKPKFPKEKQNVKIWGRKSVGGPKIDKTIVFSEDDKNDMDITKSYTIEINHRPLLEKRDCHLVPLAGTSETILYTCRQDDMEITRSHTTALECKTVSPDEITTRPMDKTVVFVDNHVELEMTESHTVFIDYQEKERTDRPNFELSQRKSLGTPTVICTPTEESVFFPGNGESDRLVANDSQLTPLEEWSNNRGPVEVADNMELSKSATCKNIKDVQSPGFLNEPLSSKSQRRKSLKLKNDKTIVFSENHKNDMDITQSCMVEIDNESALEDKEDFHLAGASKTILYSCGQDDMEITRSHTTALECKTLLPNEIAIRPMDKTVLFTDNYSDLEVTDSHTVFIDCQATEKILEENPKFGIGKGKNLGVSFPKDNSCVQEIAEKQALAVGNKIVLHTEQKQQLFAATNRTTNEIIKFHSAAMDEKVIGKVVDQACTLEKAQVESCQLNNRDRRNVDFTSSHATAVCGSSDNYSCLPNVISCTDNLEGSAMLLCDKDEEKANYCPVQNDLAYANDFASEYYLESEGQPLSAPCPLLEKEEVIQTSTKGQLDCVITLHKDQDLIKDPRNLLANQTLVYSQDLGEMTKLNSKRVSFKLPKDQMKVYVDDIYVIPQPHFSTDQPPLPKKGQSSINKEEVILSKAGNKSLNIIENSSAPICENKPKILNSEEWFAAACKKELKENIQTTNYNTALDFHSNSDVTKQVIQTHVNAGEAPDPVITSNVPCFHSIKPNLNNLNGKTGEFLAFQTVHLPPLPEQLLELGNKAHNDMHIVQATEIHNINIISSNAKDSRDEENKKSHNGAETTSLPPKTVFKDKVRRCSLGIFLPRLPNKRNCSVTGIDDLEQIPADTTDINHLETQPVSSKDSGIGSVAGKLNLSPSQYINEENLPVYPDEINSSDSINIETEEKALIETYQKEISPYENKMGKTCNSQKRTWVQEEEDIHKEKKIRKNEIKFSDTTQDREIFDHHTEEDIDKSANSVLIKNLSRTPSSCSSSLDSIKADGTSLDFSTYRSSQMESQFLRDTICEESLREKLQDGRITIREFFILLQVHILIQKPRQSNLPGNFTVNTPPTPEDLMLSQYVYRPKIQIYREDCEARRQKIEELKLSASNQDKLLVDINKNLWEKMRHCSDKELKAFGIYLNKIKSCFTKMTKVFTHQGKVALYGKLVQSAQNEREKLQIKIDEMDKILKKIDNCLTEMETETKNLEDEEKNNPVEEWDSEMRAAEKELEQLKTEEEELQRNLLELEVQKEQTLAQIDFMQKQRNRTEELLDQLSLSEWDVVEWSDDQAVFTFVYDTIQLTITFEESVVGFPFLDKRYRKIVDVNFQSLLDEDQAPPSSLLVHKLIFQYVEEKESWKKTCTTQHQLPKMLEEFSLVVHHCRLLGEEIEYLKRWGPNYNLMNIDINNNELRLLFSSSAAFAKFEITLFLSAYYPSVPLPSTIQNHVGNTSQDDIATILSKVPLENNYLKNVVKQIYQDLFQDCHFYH

B1: LZTR1 R810W-FLAG (other, human, UniProt Q8N653 1-840, looked up)
chain: MAGPGSTGGQIGAAALAGGARSKVAPSVDFDHSCSDSVEYLTLNFGPFETVHRWRRLPPCDEFVGARRSKHTVVAYKDAIYVFGGDNGKTMLNDLLRFDVKDCSWCRAFTTGTPPAPRYHHSAVVYGSSMFVFGGYTGDIYSNSNLKNKNDLFEYKFATGQWTEWKIEGRLPVARSAHGATVYSDKLWIFAGYDGNARLNDMWTIGLQDRELTCWEEVAQSGEIPPSCCNFPVAVCRDKMFVFSGQSGAKITNNLFQFEFKDKTWTRIPTEHLLRGSPPPPQRRYGHTMVAFDRHLYVFGGAADNTLPNELHCYDVDFQTWEVVQPSSDSEVGGAEVPERACASEEVPTLTYEERVGFKKSRDVFGLDFGTTSAKQPTQPASELPSGRLFHAAAVISDAMYIFGGTVDNNIRSGEMYRFQFSCYPKCTLHEDYGRLWESRQFCDVEFVLGEKEECVQGHVAIVTARSRWLRRKITQARERLAQKLEQEAAPVPREAPGVAAGGARPPLLHVAIREAEARPFEVLMQFLYTDKIKYPRKGHVEDVLLIMDVYKLALSFQLCRLEQLCRQYIEASVDLQNVLVVCESAARLQLSQLKEHCLNFVVKESHFNQVIMMKEFERLSSPLIVEIVRRKQQPPPRTPLDQPVDIGTSLIQDMKAYLEGAGAEFCDITLLLDGHPRPAHKAILAARSSYFEAMFRSFMPEDGQVNISIGEMVPSRQAFESMLRYIYYGEVNMPPEDSLYLFAAPYYYGFYNNRLQAYCKQNLEMNVTVQNVLQILEAADKTQALDMKRHCLHIIVHQFTKVSKLPTLWSLSQQLLLDIIDSLASHISDKQCAELGADI
notes: Stably expressed in U87 cells by lentivirus; also called LZTR1-FLAG-R810W; LZTR1 RW; not shown: FLAG tag
binds: KNL1 | SNX14 | HECTD3 | POLR1A
